Laboratory results taken from patent publication US20100221798.

Target: octadecenoyl-ACP

B1: Synechococcus elongatus PCC7942 orf1594 protein (YP-400611; Synpcc7942-1594; acyl-ACP reductase) with C-terminal His-tag (protein)
chain: MFGLIGHLTSLEQARDVSRRMGYDEYADQGLEFWSSAPPQIVDEITVTSATGKVIHGRYIESCFLPEMLAARRFKTATRKVLNAMSHAQKHGIDISALGGFTSIIFENFDLASLRQVRDTTLEFERFTTGNTHTAYVICRQVEAAAKTLGIDITQATVAVVGATGDIGSAVCRWLDLKLGVGDLILTARNQERLDNLQAELGRGKILPLEAALPEADFIVWVASMPQGVVIDPATLKQPCVLIDGGYPKNLGSKVQGEGIYVLNGGVVEHCFDIDWQIMSAAEMARPERQMFACFAEAMLLEFEGWHTNFSWGRNQITIEKMEAIGEASVRHGFQPLALAI
  Km for the reduction of octadecenoyl-ACP in the presence of 2 mM NADPH (in vitro reductase assay, aldehyde formed measured by GC/MS): 7.8 ± 2 µM
